“Also recorded” adds a separate entry of the source. No end group written: not given here.
Experiments:
DNA-PK [1] = molecular target: T1, DNA-PK (Homo sapiens, UniProt P78527); test: Phosphorylation of synthetic peptides by purified DNA-PK (phosphocellulose paper binding method); format: biochemical
T1 construct: DNA-PK was purified from HeLa cells; endogenous in cells; host or cells: HeLa S3 cells; the endogenous enzyme was purified in house by chromatography
Description: Phenylmethylsulfonyl fluoride was added to the S10 (10,000×g) supernatant as a powder to 0.5 mM. DNA-PK activity was found in the 100,000×g (ribosomal) pellet. DNA-PK preparations typically were made from 200 ml of S10 supernatant that had been derived from approximately 10^10 cells. All steps were performed at 4° C. unless indicated otherwise.
Phosphorylation reactions were performed in a 20- or 40-μl final volume as previously described by Chen, et al., J. Virol., 10:5131-5140 (1991) and Lees-Miller, et al., Mol. Cell. […] In particular, in addition to synthetic peptide substrates or protein substrates, the assays contained 50 mM HEPES (pH 7.5), 100 mM KCl, 10 mM MgCl2, 2 mM EGTA, 0.1 mM EDTA and 0.125 mM ATP containing [^32P]ATP at 0.2 mCi/ml. […] Assays were started by adding 1 μl of kinase sample. Incubations were at 30° C. for 7 min.
For determinations of kinetic constants, the ATP concentration was 0.5 mM. When present, hsp90 was included at 0.5 mg/ml. Assay mixtures were preincubated at 30° C. for 2 min before addition of 0.1 to 0.5 μg (protein) of the DNA-PK preparation.
In particular, kinase reactions were stopped by adding an equal volume of 30% acetic acid, and portions of the acidified reaction were spotted on 2- by 2-cm squares of P-81 paper (Whatman, Inc., Clifton, N.J.). […] The P-81 squares were then transferred to scintillation vials containing 3.5 ml of water, and bound radioactivity was determined from the Cerenkov radiation. Enzyme activity was calculated from triplicate determinations, using the specific activity of the ATP and the protein concentration, which was determined by the Bio-Rad dye-binding assay (Bio-Rad (Bradford) Protein Assay Kit 1, Cat. No. 500-001, Bio-Rad Laboratories, Hercules, Calif.), using bovine serum albumin as the standard. […] The kinetic constants, Km and Vmax for each peptide sequence were calculated from plots of 1/[S] versus 1/V, the values reported are averages of at least two independent determinations.

DNA-PK [2] = molecular target: T1, DNA-PK; test: Poorer substrate peptides added to (SEQ ID NO: 8) phosphorylation assays; format: biochemical; settings: peptide up to 250 μM; (SEQ ID NO: 8) at 100 μM
DNA-PK [3] = test: Phosphorylation of synthetic peptides in crude cell extracts (L 929); format: biochemical, mouse; settings: peptide 200 μM, 10 min 30° C.
Description: To examine cells for DNA-PK content, extracts from HeLa, T98G human glioblastoma, and mouse L 929 cells were prepared by freeze-thaw lysis of cells harvested from five nearly confluent 9-cm-diameter plates as described in Example 1 and by Lees-Miller, et al. J. Biol. Chem., 264:2431-2437 (1989). T98G (ATCC CRL 1690) is a human glioblastoma cell line; L-929 (ATCC CCL 1) was derived from connective tissue of the NCTC 2071 mouse. Based on earlier work with natural protein substrates, it was expected that extracts of HeLa and T98G cells would contain a significant amount of DNA-PK activity while the extracts of mouse L 929 would contain little, if any, DNA-PK activity. Lysates in low-salt buffer were centrifuged at 10,000×g, to give a supernatant fraction (designated S10) and pellets (designated P10). The pellets were washed by resuspension in a high salt buffer (0.5 M KCl, 25 mM N-2-hydroxyethylpiperazine-N′-2-ethanesulfonic acid (HEPES; pH 7.5), 10 mM MgCl2, 1 mM dithiothreitol) and were sonicated. The sonicated suspension was centrifuged at 10,000×g for 10 min to give a second supernatant fraction (designated P10S), which was diluted with buffer lacking KCl to give a volume equal to that of the original supernatant (S10). Protein concentrations, determined using the Bio-Rad dye-binding assay, were as follows: HeLa S10, 3 mg/ml; HeLa P10S, 1 mg/ml; T98G S10, 3.5 mg/ml;,T98G P10S, 1 mg/ml; L-929 S10, 1 mg/ml; and L-929 P10S, 0.3 mg/ml. These extracts were assayed for the ability to phosphorylate (SEQ ID NOS: 11 and 20) with and without added calf thymus DNA.

DNA-PK [4] = molecular target: T1, DNA-PK; test: DNA-PK activity in extracts of human cell lines; format: biochemical; settings: for Specific Activity + DNA: + calf thymus DNA 10 μg/ml; for Specific Activity + DNA / Specific Activity − DNA: peptide 0.2 mM; for Specific Activity − DNA: no added DNA
Description: (§1) Extracts of additional primate and rodent cells were tested for the presence of DNA-PK activity in accordance with the method of the present invention. The DNA-PK activity was determined using the methods described in Examples 1, 4 and 5 for seven human cell lines, two African green monkey kidney lines, and six rodent cell lines.
(§2) Extracts were prepared essentially as described in Example 10. Cells were lysed by freezing and thawing in hypotonic buffer; soluble (S10) “cytoplasmic” and insoluble in (P10) “nuclear” fractions were made by centrifuging lysates at 10,000×g for 10 min. The insoluble fraction was extracted with buffer containing 0.5 M KCl, which releases any DNA-PK that is bound to DNA. After centrifugation of the salt-washed pellet fraction, which removed the remaining insoluble material, the salt extract (P10S) was diluted and assayed as previously described.
(§3) Protein concentrations, determined using the Bio-Rad dye binding assay, were between 0.3 and 6 mg/ml. Extracts were incubated at 30° C. for 10 min with each peptide at 0.2 mM in the absence of added DNA (−DNA) or with 10 μg/ml calf thymus DNA (+DNA). After incubation the reaction mixtures were acidified with an equal volume of 30% acetic acid and spotted on to Whatman P-81 phosphocellulose paper (Whatman, Inc., Clifton, N.J.). The filters then were washed extensively in 15% acetic acid before the adsorbed radioactivity was quantitated as described in Example 5.
(§4) The amount of phosphate incorporated was calculated from the specific activity of the ATP. The rate of phosphate incorporation into the Ser-Gln-Glu peptide (Table 1) (SEQ ID NO: 11) in the presence of calf thymus DNA was approximately linear throughout the 10 minute reaction incubation period. Parallel assays were performed without added peptide, and these background values were subtracted to produce the activities that are shown in Table 3. Background values varied but, in all cases, were less than 0.2 nmol/min/mg (a few percent of the activity present in human cells). The specific activities were calculated from the total activity in the two fractions divided by the total protein in the two fractions. The percent of total DNA-PK activity in the S10 and P10S fractions was determined with peptide (SEQ ID NO: 11) in the presence of added calf thymus DNA. Extracts without substantial DNA-PK activity were examined for their ability to inhibit purified DNA-PK. Inhibitory activity was not detected.

DNA-PK [5] = test: DNA-PK activity in extracts of monkey cell lines; format: biochemical, African green monkey; settings: peptide 0.2 mM; for Specific Activity + DNA: + calf thymus DNA 10 μg/ml; for Specific Activity − DNA: no added DNA
Description: as §1, §2, §3, §4

DNA-PK [6] = test: DNA-PK activity in extracts of hamster cell lines; format: biochemical, Chinese hamster; settings: peptide 0.2 mM; for Specific Activity + DNA: + calf thymus DNA 10 μg/ml; for Specific Activity − DNA: no added DNA
Description: as §1, §2, §3, §4

- PO4 incorp. (DNA-PK [1]; each peptide at 200 μM, calf thymus DNA 10 μg/ml, 30° C.): 0 pmol/min/μg of DNA-PK
- Specific Activity + DNA (DNA-PK [4]; Human 293-S, P10S): 0.04 nmol PO4/min/mg protein
- Specific Activity − DNA (DNA-PK [4]; Human 293-S, P10S): 0.0 nmol PO4/min/mg protein
- Specific Activity + DNA (DNA-PK [4]; Human 293-S, S10): 0.01 nmol PO4/min/mg protein
- Specific Activity − DNA (DNA-PK [4]; Human 293-S, S10): 0.0 nmol PO4/min/mg protein
- Specific Activity + DNA (DNA-PK [4]; Human A549, P10S): 0.01 nmol PO4/min/mg protein
- Specific Activity − DNA (DNA-PK [4]; Human A549, P10S): 0.06 nmol PO4/min/mg protein
- Specific Activity + DNA (DNA-PK [4]; Human A549, S10): 0.0 nmol PO4/min/mg protein
- Specific Activity − DNA (DNA-PK [4]; Human A549, S10): 0.02 nmol PO4/min/mg protein
- Specific Activity + DNA (DNA-PK [4]; Human HPB-ALL, P10S): 0.05 nmol PO4/min/mg protein
- Specific Activity − DNA (DNA-PK [4]; Human HPB-ALL, P10S): 0.04 nmol PO4/min/mg protein
- Specific Activity + DNA (DNA-PK [4]; Human HPB-ALL, S10): 0.0 nmol PO4/min/mg protein
- Specific Activity − DNA (DNA-PK [4]; Human HPB-ALL, S10): 0.04 nmol PO4/min/mg protein
- Specific Activity + DNA (DNA-PK [4]; Human HeLa-JW, P10S): 0.1 nmol PO4/min/mg protein
- Specific Activity − DNA (DNA-PK [4]; Human HeLa-JW, P10S): 0.0 nmol PO4/min/mg protein
- Specific Activity + DNA (DNA-PK [4]; Human HeLa-JW, S10): 0.1 nmol PO4/min/mg protein
- Specific Activity − DNA (DNA-PK [4]; Human HeLa-JW, S10): 0.0 nmol PO4/min/mg protein
- Specific Activity + DNA (DNA-PK [4]; Human MRC 5, P10S): 0.04 nmol PO4/min/mg protein
- Specific Activity − DNA (DNA-PK [4]; Human MRC 5, P10S): 0.02 nmol PO4/min/mg protein
- Specific Activity + DNA (DNA-PK [4]; Human MRC 5, S10): 0.30 nmol PO4/min/mg protein
- Specific Activity − DNA (DNA-PK [4]; Human MRC 5, S10): 0.11 nmol PO4/min/mg protein
- Specific Activity + DNA (DNA-PK [4]; Human Raji, P10S): 0.0 nmol PO4/min/mg protein
- Specific Activity − DNA (DNA-PK [4]; Human Raji, P10S): 0.0 nmol PO4/min/mg protein
- Specific Activity + DNA (DNA-PK [4]; Human Raji, S10): 0.0 nmol PO4/min/mg protein
- Specific Activity − DNA (DNA-PK [4]; Human Raji, S10): 0.08 nmol PO4/min/mg protein
- Specific Activity + DNA (DNA-PK [4]; Human T98G, P10S): 0.0 nmol PO4/min/mg protein
- Specific Activity − DNA (DNA-PK [4]; Human T98G, P10S): 0.0 nmol PO4/min/mg protein
- Specific Activity + DNA (DNA-PK [4]; Human T98G, S10): 0.01 nmol PO4/min/mg protein
- Specific Activity − DNA (DNA-PK [4]; Human T98G, S10): 0.01 nmol PO4/min/mg protein
Sequence: EPPLSEQAFADLWKK [SEQ ID NO: 20]
- substrate activity for DNA-PK (in words) (DNA-PK [1]): negligible substrate activity; also recorded: not phosphorylated by DNA-PK
- inhibition of phosphorylation of (SEQ ID NO: 8) (DNA-PK [2]): None of these peptides significantly inhibited the phosphorylation
- PO4 incorporated + DNA (DNA-PK [3]; P10S, + calf thymus DNA 10 μg/ml): 0.0 nmol/min/ml of extract
- PO4 incorporated − DNA (DNA-PK [3]; P10S, without DNA): 0.0 nmol/min/ml of extract
- PO4 incorporated + DNA (DNA-PK [3]; S10, + calf thymus DNA 10 μg/ml): 0.0 nmol/min/ml of extract
- PO4 incorporated − DNA (DNA-PK [3]; S10, without DNA): 0.0 nmol/min/ml of extract
- phosphorylation of the peptide by cell extracts (in words) (DNA-PK [4]; all extracts of Example 11, with or without added DNA): None of the extracts phosphorylated the Ser-Glu-Gln peptide (SEQ ID NO: 20) at a significant rate
- Specific Activity + DNA (DNA-PK [5]; Monkey COS-1, P10S): 0.24 nmol PO4/min/mg protein
- Specific Activity − DNA (DNA-PK [5]; Monkey COS-1, P10S): 0.0 nmol PO4/min/mg protein
- Specific Activity + DNA (DNA-PK [5]; Monkey COS-1, S10): 0.02 nmol PO4/min/mg protein
- Specific Activity − DNA (DNA-PK [5]; Monkey COS-1, S10): 0.0 nmol PO4/min/mg protein
- Specific Activity + DNA (DNA-PK [5]; Monkey CV-1, P10S): 0.08 nmol PO4/min/mg protein
- Specific Activity − DNA (DNA-PK [5]; Monkey CV-1, P10S): 0.08 nmol PO4/min/mg protein
- Specific Activity + DNA (DNA-PK [5]; Monkey CV-1, S10): 0.05 nmol PO4/min/mg protein
- Specific Activity − DNA (DNA-PK [5]; Monkey CV-1, S10): 0.0 nmol PO4/min/mg protein
- Specific Activity + DNA (DNA-PK [6]; Hamster CHO, P10S): 0.06 nmol PO4/min/mg protein
- Specific Activity − DNA (DNA-PK [6]; Hamster CHO, P10S): 0.0 nmol PO4/min/mg protein
- Specific Activity + DNA (DNA-PK [6]; Hamster CHO, S10): 0.01 nmol PO4/min/mg protein
- Specific Activity − DNA (DNA-PK [6]; Hamster CHO, S10): 0.0 nmol PO4/min/mg protein
- Specific Activity + DNA (DNA-PK [6]; Hamster V79, P10S): 0.05 nmol PO4/min/mg protein
- Specific Activity − DNA (DNA-PK [6]; Hamster V79, P10S): 0.05 nmol PO4/min/mg protein
- Specific Activity + DNA (DNA-PK [6]; Hamster V79, S10): 0.0 nmol PO4/min/mg protein
- Specific Activity − DNA (DNA-PK [6]; Hamster V79, S10): 0.0 nmol PO4/min/mg protein

From patent US6803203B1, “DNA-PK assay” (Brookhaven Science Associates, priority 1993, dated 2004)
